Experiments:
[1] = target: T1, HMG1 B Box peptide amino acids 91-169; experiment: ELISA, HMG1 B Box peptide 91-169 coated at 10 ug/ml, antibody titrated, OD 450
T1 construct: also called HMG1 peptide 91-169
T1 peptide: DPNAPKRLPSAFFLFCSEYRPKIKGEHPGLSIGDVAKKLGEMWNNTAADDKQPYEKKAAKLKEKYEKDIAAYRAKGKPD
In short: (§1)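 Plates blocked with 4% milk/PBS, or biotinylated peptides captured on avidin wells after 1% BSA blocking (30 min RT). Human anti-HMG1 antibodies titrated or serially diluted from 10 μg/ml, detected with anti-human IgG-HRP and TMB substrate, absorbance at 450 nm.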

[2] = target: T2, recombinant HMG1 produced in E. coli as a calmodulin binding protein (CBP) fusion (human); experiment: cell-based or functional assay
T2 sequence (P09429 whole entry, the tested form may be a part): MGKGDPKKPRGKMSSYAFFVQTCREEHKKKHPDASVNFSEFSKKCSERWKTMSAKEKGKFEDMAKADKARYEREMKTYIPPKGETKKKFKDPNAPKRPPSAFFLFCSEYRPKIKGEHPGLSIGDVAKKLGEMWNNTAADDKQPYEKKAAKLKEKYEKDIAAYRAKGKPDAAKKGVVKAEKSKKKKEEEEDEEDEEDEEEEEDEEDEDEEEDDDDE

[3] = target: T3, HMG1 B Box peptide amino acids 150-183; experiment: ELISA, HMG1 B Box peptide 150-183 coated at 10 ug/ml, antibody titrated, OD 450
T3 peptide: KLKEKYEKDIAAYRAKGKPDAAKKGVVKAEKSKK
In short: as §1

[4] = target: T1, HMG1 B Box peptide amino acids 91-169; experiment: ELISA, HMG1 B Box peptide 91-169 coated at 10 ug/ml, antibody titrated, anti-human IgG-HRP, OD 450
Method: The plate was then blocked with 4% milk powder dissolved in PBS at 37° C. for 1 hour. The blocking solution was removed and replaced with human anti-HMG1 antibodies at various concentrations (see FIGS. 5A-B). […] HRP activity was detected with Sureblue HRP substrate (KPL). Plates were read at 450 nm using a Kinetic Microplate Reader (Molecular Devices). […] After washing and blocking with 1% BSA in PBS, the biotinylated peptides were individually added into the avidin coated wells and incubated for 30 min at room temperature. The serial diluted antibody G4, S16 and S6 at the initial concentration at 10 μg/ml were then transferred into the wells followed by adding mouse anti human IgG-HRP conjugate (Pierce). Detection was accomplished by adding 50 μl of tetramethylbenzidine (TMB) substrate (KPL) and the absorbance was read at 450 nm.

[5] = target: T4, HMG1 purified from calf (bovine) thymus (bovine, UniProt P10103 2-215); experiment: direct ELISA, calf thymus HMGB1 coated at 5 ug/mL, antibody at 10 ug/mL, anti-human kappa/lambda-HRP, OD 490
T4 construct: also called Calf thymus HMGB1; thymus HMG1
T4 sequence (looked up): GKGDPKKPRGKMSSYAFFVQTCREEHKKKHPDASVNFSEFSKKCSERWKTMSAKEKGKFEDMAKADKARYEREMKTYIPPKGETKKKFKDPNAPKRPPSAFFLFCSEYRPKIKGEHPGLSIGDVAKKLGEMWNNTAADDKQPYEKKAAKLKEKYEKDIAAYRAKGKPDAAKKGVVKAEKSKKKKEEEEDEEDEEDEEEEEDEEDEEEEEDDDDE
In short: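 Calf thymus HMGB1 or HMGB2 coated at 5 ug/mL in 10 mM PBS pH 7.2 overnight at 4 °C; anti-HMGB1 antibody added at 10 ug/mL final in PBS + 1% BSA, 1 h at room temperature. Detection with HRP anti-human kappa plus lambda (1:1000, 1 h), OPD substrate 20-30 min in the dark, H₂SO₄ stop, absorbance 490 nm.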

[6] = target: T2, recombinant HMG1 produced in E. coli as …; experiment: BIAcore 3000, mAb amine-coupled to CM5, HMG1 injected, steady-state model
In short: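 Each mAb amine-coupled to a CM5 chip alongside a reference flow cell; two-fold serial dilutions of E. coli-expressed CBP-fusion HMG1 injected at slow flow. Surfaces regenerated with 1M NaCl-50 mM NaOH. Affinity derived from binding curves by a steady-state model.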

[7] = target: T5, HMG2 coated on ELISA plates (Bos taurus (Bovine), UniProt P40673 2-209); experiment: direct ELISA, HMGB2 coated at 5 ug/mL, OD 490
T5 construct: also called HMGB2; HMBG2
T5 sequence: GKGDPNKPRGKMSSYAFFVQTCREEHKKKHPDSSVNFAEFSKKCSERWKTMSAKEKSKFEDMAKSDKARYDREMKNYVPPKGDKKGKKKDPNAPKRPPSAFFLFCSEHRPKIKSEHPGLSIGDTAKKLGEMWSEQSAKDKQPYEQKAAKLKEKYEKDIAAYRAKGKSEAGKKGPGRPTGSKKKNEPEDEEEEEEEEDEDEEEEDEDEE
Method: Binding to HMG1 vs. HMG2: Ultra high-binding ELISA plates (ThermoLab systems, #3855) were coated with either 5 ug/mL of Calf thymus HMGB1 or HMBG2 diluted in 10 mM Phosphate buffered saline (PBS), pH 7.2 and incubate overnight at 4 degrees. The plates were washed twice with Ca and Mg free PBS and 100 microliters of anti-HMGB1 antibody diluted in 10 mM PBS, pH 7.2+1% bovine serum albumin (BSA) to a final concentration of 10 ug/mL was added to each well and the plates were incubated 1 hour at room temperature. The wells were washed three times with 100 μl of PBS, pH 7.2. HRP labeled goat-anti-human IgG Kappa-chain (KPL, #14-10-10) and goat-anti-human IgG Lambda-chain (KPL, #14-10-11) were diluted in 10 mM PBS+1% BSA 1:1000 and 100 μl were added to each well and incubated for 1 hour at room temperature. The wells were then washed three times with 100 μl of PBS, pH 7.2. OPD substrate (Pierce chemical company, #34006) was prepared following the manufacturers instructions and 100 μl of prepared substrate was added to each well and the plates incubated at room temperature in the dark for 20-30 minutes. The reaction was stopped with the addition of 100 μl of 2M H₂SO₄, and the plates read on a plate reader at a wavelength of 490 nm.

B1: human anti-HMG1 antibody E11 (antibody, IgG1, V domains shown)
VH: EVQLLESGGGLVQPGGSLRLSCAASGFTFSRYQMNWVRQAPGKGLEWVSSISPSGGHTHYADSVKGRFTISRDNSKNTLYLQMNSLRAEDTAVYYCAKDGRQGKISTVDHWGQGTLVTVSS
VL: DIQMTQSPGTLSLSPGERATLSCRASQSVRSNFLAWYQQKPGQAPRLLIYGASRRASGIPDRFSGSGFGADFTLSISRLEPEDFAVYYCQQYGSSPNTFGQGSRVEIK
notes: full length IgG1 made from a human Fab phage clone
- binding result [1]: no binding (tested: 10 ug/ml (log 1.0))
- IC50 IL-6 [2]: 1.22 nM
- IC50 NO [2]: 101 µg/mL
- binding result [3]: no binding (tested: 10 ug/ml (log 1.0))

B2: human anti-HMG1 antibody G4 (antibody, IgG1, V domains shown)
VH: EVQLLESGGGLVQPGGSLRLSCAASGFTFSWYDMTWVRQAPGKGLEWVSSISPSGGYTKYADSVKGRFTISRDNSKNTLYLQMNSLRAEDTAVYYCTTEFYDYLDVWGKGTTVTVSS
VL: DIQMTQSPGTLSLSPGEGATLSCRASQSVSSTYLAWYQQKPGQAPRLLIYEASKRATGTPARFSGSGSGTDFTLSISSLEPEDFAVYYCQHRHNWPPQWTFGQGTKVEVK
notes: full length IgG1 made from a human Fab phage clone; also called ATCC PTA-6258
- binding result [4]: binds
- binding result [5]: binds
- IC50 IL-1β [2]: 5.01 µg/mL
- IC50 IL-6 [2]: 0.9 nM
- IC50 IL-12 [2]: 0.715 µg/mL
- IC50 TNF-α [2]: 5.51 µg/mL
- Kd [6]: 30 nM
- binding result [7]: no binding (tested: 10 ug/mL (single concentration))
- binding result [3]: no binding (tested: 10 ug/ml (log 1.0))

B3: human anti-HMG1 antibody S16 (antibody, IgG1, V domains shown)
VH: EVQLLESGGGLVQPGGSLRLSCAASGFTFSWYSMLWVRQAPGKGLEWVSYISPSGGFTNYADSVKGRFTISRDNSKNTLYLQMNSLRAEDTAVYYCARWDYNSGWYYDHWGQGTLVTVSS
VL: DIQMTQSPDTLSLSPGERATLSCRASQSVNSRNLAWYQQKPGQAPRLLIYGASTRATGIPDRFSGSVSGTEFTLTISSLQPDDFATYYCQQYNSYFTFGQGTKLEIK
notes: full length IgG1 made from a human Fab phage clone; also called ATCC PTA-6259
- binding result [4]: binds
- binding result [5]: binds
- IC50 IL-1β [2]: 6.05 µg/mL
- IC50 IL-6 [2]: 0.56 nM
- IC50 IL-12 [2]: 1.24 µg/mL
- IC50 TNF-α [2]: 1.44 µg/mL
- Kd [6]: 23 nM

B4: human anti-HMG1 antibody S6 (antibody, V domains shown)
VH: EVQLLESGGGLVQPGGSLRLSCAASGFTFSWYDMSWVRQAPGKGLEWVSRISPSGGYTMYADSVKGRFTISRDNSKNTLYLQMNSLRAEDTAVYYCARLEVGATSGGTAFDIWGQGTMVTVSS
VL: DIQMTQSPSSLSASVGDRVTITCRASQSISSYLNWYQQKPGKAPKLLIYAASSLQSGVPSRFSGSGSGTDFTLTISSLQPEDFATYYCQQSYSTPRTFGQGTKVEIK
notes: full length IgG1 made from a human Fab phage clone; two paragraphs print 'S4' for the PTA-6143 deposit; also called ATCC PTA-6143
- binding result [1]: no binding (tested: 10 ug/ml (log 1.0))
- binding result [5]: binds
- IC50 IL-1β [2]: 0.0232 µg/mL
- IC50 IL-6 [2]: 0.174 nM
- IC50 NO [2]: 4.15 µg/mL
- IC50 TNF-α [2]: 0.0182 µg/mL
- Kd [6]: 39 nM
- binding result [7]: no binding (tested: 10 ug/mL (single concentration))
- binding result [3]: no binding (tested: 10 ug/ml (log 1.0))

From patent publication US20110287023A1 (AstraZeneca / MedImmune, published 2011)
